{
  "source": "paper PMC2814318",
  "origin": "cited, not measured here",
  "key": {"[1]": {"molecular_target": "CaV β2a subunit (Rattus norvegicus) (UniProt Q8VGC3)"}, "[2]": {"molecular_target": "CaV β1b subunit (Rattus norvegicus) (UniProt P54283)", "sequence (P54283 whole entry)": "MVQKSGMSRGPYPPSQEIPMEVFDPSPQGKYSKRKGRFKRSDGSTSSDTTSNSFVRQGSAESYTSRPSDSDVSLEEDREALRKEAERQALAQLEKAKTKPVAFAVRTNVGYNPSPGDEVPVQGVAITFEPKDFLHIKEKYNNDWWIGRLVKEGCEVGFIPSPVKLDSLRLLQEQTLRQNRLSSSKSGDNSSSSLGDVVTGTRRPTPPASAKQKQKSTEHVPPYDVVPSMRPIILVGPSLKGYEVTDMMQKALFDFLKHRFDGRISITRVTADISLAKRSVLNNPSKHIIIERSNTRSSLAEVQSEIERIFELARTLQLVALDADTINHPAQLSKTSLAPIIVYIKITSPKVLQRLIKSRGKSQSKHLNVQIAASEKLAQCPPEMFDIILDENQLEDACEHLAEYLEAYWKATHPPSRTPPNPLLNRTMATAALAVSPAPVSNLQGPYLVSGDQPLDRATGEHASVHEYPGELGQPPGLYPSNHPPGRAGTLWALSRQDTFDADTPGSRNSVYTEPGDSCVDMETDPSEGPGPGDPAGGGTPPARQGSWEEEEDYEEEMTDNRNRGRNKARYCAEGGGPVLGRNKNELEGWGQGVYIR"}},
  "data": [
    {"substance": "CaMKIIδ (from UniProt P15791)", "values": [
      {"measurement": "Kd", "setting": "[1]", "result": 0.1, "unit": "µM"},
      {"measurement": "Kd", "setting": "[2]", "result": 0.1, "unit": "µM"}
    ]}
  ]
}
